In the supplement of paper PMC10065799, “High-throughput profiling of sequence recognition by tyrosine kinases and SH2 domains using bacterial peptide display” (eLife, 2023):

The sequences below were run on c-Src (assay: phosphorylation enrichment, bacterial display (enrichment ratio); higher = better substrate or ligand; peptides without Tyr show the background).
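Throughout, for SH2 binding enrichment of the phosphorylated peptide, bacterial display: peptide library displayed on the E. coli surface as eCPX fusions, selected cells deep-sequenced, score is each peptide's frequency after selection divided by its frequency in the input.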
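Throughout, for phosphorylation enrichment, bacterial display: 11-residue human phosphosite peptides and single-mutation variants displayed on the E. coli surface, counted by deep sequencing, each peptide's frequency after selection divided by its frequency in the unselected input library; frequency after pTyr selection over input frequency; kinase dosed for 20-30% of maximal phosphorylation in three min.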

KKFVPYFDLFM [IPO5_Y530_E525K_YF] and PDNKPYIFKVF [PIK3AP1_Y553_E551K] are the same in phosphorylation enrichment: 0.526 for the first, 0.526 for the second.

Compared with LAVVDYIRRQK [ATM_Y1915_M1916I], LDAFIYDAALL [GRIN2A_Y730_V734L] is higher in phosphorylation enrichment: 1.21 for the first, 7.16 for the second.

Going from TFWKKYCTFWK [CCDC70_Y125_R126C] to FITVGYVDDTQ [HLA-B_Y51_S48T], the phosphorylation enrichment rises from 0.395 to 0.432.

Going from KHGGNYVPAPK [OSCP1_Y237] to QNVADYMRYLM [RPL5_Y207], the phosphorylation enrichment rises from 0.491 to 0.684.

Going from NFATLYLKIFH [PDE6B_Y219_YF] to LKLWDYSRGRC [WDR5B_Y239], the phosphorylation enrichment falls from 0.434 to 0.39.

Going from HHTNEYEFDEL [TGM1_Y134_D132N_YF] to YAANYYKLLGN [ROR2_Y646_D644N], the phosphorylation enrichment falls from 0.939 to 0.462.

First: TIQIMFGCDVG [HLA-A_Y123_Y123F]
Second: EPFKVYRIVPE [IRF8_Y110_YF]
The phosphorylation enrichment of the first is lower: 0.548 for the first, 0.588 for the second.

First: PLQHVYKIGGI [EEF1A2_Y254_D252H]
Second: VPLATYMQIFK [RPL21_Y30_R32Q_YF]
The phosphorylation enrichment of the first is lower: 0.959 for the first, 1.54 for the second.

First: GCKKRYDKDKP [THAP1_Y14_N12K]
Second: RAFSWYQHQRA [NDST1_Y714_YF]
The phosphorylation enrichment of the first is higher: 0.531 for the first, 0.489 for the second.

Going from FLRTGYSVPFG [TGM1_Y370_YF] to NMHSTYAKLAA [SEC22B_Y193], the phosphorylation enrichment falls from 0.53 to 0.375.

First: ISHVAYCVLGK [TRRAP_Y892_R893C]
Second: DFTEAYNSKIK [CLK1_Y305_P307S_YF]
The phosphorylation enrichment of the first is lower: 0.523 for the first, 0.56 for the second.

Going from TYEYKYPEGSS [TGM4_Y440] to SGPRRYTVAAL [TTR_Y125_I127V], the phosphorylation enrichment falls from 0.525 to 0.415.

Compared with TRGLEYIVPLM [CLCN4_Y548_G544R], CPYNLYAAQLS [HGD_Y40_E42A] is higher in phosphorylation enrichment: 0.541 for the first, 6.42 for the second.

First: TRDVNYGWVIR [MT-CYB_Y75_I78V]
Second: QEGPEYWDLET [HLA-A_Y83_Q86L]
The phosphorylation enrichment of the first is lower: 0.576 for the first, 0.998 for the second.

RRSKMYLKTRS [LPL_Y329_S325R] was tested, and the phosphorylation enrichment was 1.03.

What follows are sequences tested against Grb2 SH2 (UniProt P62993) (assay: SH2 binding enrichment of the phosphorylated peptide, bacterial display (enrichment ratio); higher = better substrate or ligand; peptides without Tyr show the background).
Chain of Grb2 SH2 (P62993 whole entry, looked up): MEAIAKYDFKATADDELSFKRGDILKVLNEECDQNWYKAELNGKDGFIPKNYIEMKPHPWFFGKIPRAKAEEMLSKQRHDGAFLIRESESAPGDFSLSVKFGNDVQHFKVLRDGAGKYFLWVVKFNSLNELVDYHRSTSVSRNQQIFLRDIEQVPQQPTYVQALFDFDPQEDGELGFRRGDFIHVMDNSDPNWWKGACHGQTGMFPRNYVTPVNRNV

First: KKFVPYFDLFM [IPO5_Y530_E525K_YF]
Second: PDNKPYIFKVF [PIK3AP1_Y553_E551K]
The SH2 binding enrichment of the first is higher: 1.58 for the first, 1.08 for the second.

Going from LAVVDYIRRQK [ATM_Y1915_M1916I] to LDAFIYDAALL [GRIN2A_Y730_V734L], the SH2 binding enrichment rises from 0.441 to 0.735.

First: TFWKKYCTFWK [CCDC70_Y125_R126C]
Second: FITVGYVDDTQ [HLA-B_Y51_S48T]
The SH2 binding enrichment of the first is higher: 1.1 for the first, 0.779 for the second.

First: KHGGNYVPAPK [OSCP1_Y237]
Second: QNVADYMRYLM [RPL5_Y207]
The SH2 binding enrichment of the first is higher: 1.3 for the first, 1.12 for the second.

Compared with NFATLYLKIFH [PDE6B_Y219_YF], LKLWDYSRGRC [WDR5B_Y239] is lower in SH2 binding enrichment: 1.26 for the first, 0.99 for the second.

Going from HHTNEYEFDEL [TGM1_Y134_D132N_YF] to YAANYYKLLGN [ROR2_Y646_D644N], the SH2 binding enrichment rises from 0.678 to 0.872.

Compared with TIQIMFGCDVG [HLA-A_Y123_Y123F], EPFKVYRIVPE [IRF8_Y110_YF] is lower in SH2 binding enrichment: 0.861 for the first, 0.774 for the second.

First: PLQHVYKIGGI [EEF1A2_Y254_D252H]
Second: VPLATYMQIFK [RPL21_Y30_R32Q_YF]
The SH2 binding enrichment of the first is higher: 0.941 for the first, 0.859 for the second.

First: GCKKRYDKDKP [THAP1_Y14_N12K]
Second: RAFSWYQHQRA [NDST1_Y714_YF]
The SH2 binding enrichment of the first is lower: 0.755 for the first, 1.23 for the second.

First: FLRTGYSVPFG [TGM1_Y370_YF]
Second: NMHSTYAKLAA [SEC22B_Y193]
The SH2 binding enrichment of the first is higher: 0.885 for the first, 0.796 for the second.

Compared with ISHVAYCVLGK [TRRAP_Y892_R893C], DFTEAYNSKIK [CLK1_Y305_P307S_YF] is higher in SH2 binding enrichment: 0.839 for the first, 0.945 for the second.

First: TYEYKYPEGSS [TGM4_Y440]
Second: SGPRRYTVAAL [TTR_Y125_I127V]
The SH2 binding enrichment of the first is higher: 0.821 for the first, 0.794 for the second.

Going from TRGLEYIVPLM [CLCN4_Y548_G544R] to CPYNLYAAQLS [HGD_Y40_E42A], the SH2 binding enrichment rises from 0.835 to 0.895.

Going from TRDVNYGWVIR [MT-CYB_Y75_I78V] to QEGPEYWDLET [HLA-A_Y83_Q86L], the SH2 binding enrichment falls from 1.13 to 0.775.

For RRSKMYLKTRS [LPL_Y329_S325R], the SH2 binding enrichment was 0.981.

What follows are sequences tested against SHP2-C SH2 in the same assay as above.

Going from KKFVPYFDLFM [IPO5_Y530_E525K_YF] to PDNKPYIFKVF [PIK3AP1_Y553_E551K], the SH2 binding enrichment rises from 0.831 to 1.03.

First: LAVVDYIRRQK [ATM_Y1915_M1916I]
Second: LDAFIYDAALL [GRIN2A_Y730_V734L]
The SH2 binding enrichment of the first is lower: 0.461 for the first, 0.546 for the second.

Compared with TFWKKYCTFWK [CCDC70_Y125_R126C], FITVGYVDDTQ [HLA-B_Y51_S48T] is higher in SH2 binding enrichment: 0.594 for the first, 1.1 for the second.

Going from KHGGNYVPAPK [OSCP1_Y237] to QNVADYMRYLM [RPL5_Y207], the SH2 binding enrichment falls from 1.19 to 1.02.

Going from NFATLYLKIFH [PDE6B_Y219_YF] to LKLWDYSRGRC [WDR5B_Y239], the SH2 binding enrichment falls from 1.1 to 0.501.

First: HHTNEYEFDEL [TGM1_Y134_D132N_YF]
Second: YAANYYKLLGN [ROR2_Y646_D644N]
The SH2 binding enrichment of the first is higher: 0.783 for the first, 0.685 for the second.

Compared with TIQIMFGCDVG [HLA-A_Y123_Y123F], EPFKVYRIVPE [IRF8_Y110_YF] is lower in SH2 binding enrichment: 0.84 for the first, 0.511 for the second.

Compared with PLQHVYKIGGI [EEF1A2_Y254_D252H], VPLATYMQIFK [RPL21_Y30_R32Q_YF] is higher in SH2 binding enrichment: 0.588 for the first, 0.682 for the second.

Going from GCKKRYDKDKP [THAP1_Y14_N12K] to RAFSWYQHQRA [NDST1_Y714_YF], the SH2 binding enrichment rises from 0.386 to 1.23.

First: FLRTGYSVPFG [TGM1_Y370_YF]
Second: NMHSTYAKLAA [SEC22B_Y193]
The SH2 binding enrichment of the first is lower: 1.62 for the first, 13.7 for the second.

First: ISHVAYCVLGK [TRRAP_Y892_R893C]
Second: DFTEAYNSKIK [CLK1_Y305_P307S_YF]
The SH2 binding enrichment of the first is higher: 1.53 for the first, 0.613 for the second.

First: TYEYKYPEGSS [TGM4_Y440]
Second: SGPRRYTVAAL [TTR_Y125_I127V]
The SH2 binding enrichment of the first is higher: 0.701 for the first, 0.516 for the second.

Going from TRGLEYIVPLM [CLCN4_Y548_G544R] to CPYNLYAAQLS [HGD_Y40_E42A], the SH2 binding enrichment falls from 0.707 to 0.672.

First: TRDVNYGWVIR [MT-CYB_Y75_I78V]
Second: QEGPEYWDLET [HLA-A_Y83_Q86L]
The SH2 binding enrichment of the first is higher: 0.604 for the first, 0.583 for the second.

With RRSKMYLKTRS [LPL_Y329_S325R] the SH2 binding enrichment was 0.647.

What follows are sequences tested against c-Src SH2 in the same assay as above.

Going from KKFVPYFDLFM [IPO5_Y530_E525K_YF] to PDNKPYIFKVF [PIK3AP1_Y553_E551K], the SH2 binding enrichment falls from 0.878 to 0.568.

First: LAVVDYIRRQK [ATM_Y1915_M1916I]
Second: LDAFIYDAALL [GRIN2A_Y730_V734L]
The SH2 binding enrichment of the first is lower: 0.338 for the first, 0.581 for the second.

Compared with TFWKKYCTFWK [CCDC70_Y125_R126C], FITVGYVDDTQ [HLA-B_Y51_S48T] is higher in SH2 binding enrichment: 0.517 for the first, 0.736 for the second.

Going from KHGGNYVPAPK [OSCP1_Y237] to QNVADYMRYLM [RPL5_Y207], the SH2 binding enrichment falls from 1.08 to 0.628.

Going from NFATLYLKIFH [PDE6B_Y219_YF] to LKLWDYSRGRC [WDR5B_Y239], the SH2 binding enrichment falls from 0.781 to 0.74.

First: HHTNEYEFDEL [TGM1_Y134_D132N_YF]
Second: YAANYYKLLGN [ROR2_Y646_D644N]
The SH2 binding enrichment of the first is higher: 0.828 for the first, 0.501 for the second.

Going from TIQIMFGCDVG [HLA-A_Y123_Y123F] to EPFKVYRIVPE [IRF8_Y110_YF], the SH2 binding enrichment falls from 0.515 to 0.506.

Going from PLQHVYKIGGI [EEF1A2_Y254_D252H] to VPLATYMQIFK [RPL21_Y30_R32Q_YF], the SH2 binding enrichment rises from 0.517 to 0.866.

Compared with GCKKRYDKDKP [THAP1_Y14_N12K], RAFSWYQHQRA [NDST1_Y714_YF] is higher in SH2 binding enrichment: 0.337 for the first, 0.934 for the second.

First: FLRTGYSVPFG [TGM1_Y370_YF]
Second: NMHSTYAKLAA [SEC22B_Y193]
The SH2 binding enrichment of the first is higher: 5.53 for the first, 1.71 for the second.

First: ISHVAYCVLGK [TRRAP_Y892_R893C]
Second: DFTEAYNSKIK [CLK1_Y305_P307S_YF]
The SH2 binding enrichment of the first is higher: 0.812 for the first, 0.45 for the second.

Compared with TYEYKYPEGSS [TGM4_Y440], SGPRRYTVAAL [TTR_Y125_I127V] is lower in SH2 binding enrichment: 0.854 for the first, 0.618 for the second.

Compared with TRGLEYIVPLM [CLCN4_Y548_G544R], CPYNLYAAQLS [HGD_Y40_E42A] is lower in SH2 binding enrichment: 0.825 for the first, 0.603 for the second.

Going from TRDVNYGWVIR [MT-CYB_Y75_I78V] to QEGPEYWDLET [HLA-A_Y83_Q86L], the SH2 binding enrichment falls from 0.654 to 0.507.

RRSKMYLKTRS [LPL_Y329_S325R] showed an SH2 binding enrichment of 0.319.
